From PMC11754652 come the findings set out here.

This data set concerns the target T1, RheA (RheASal) (Streptomyces albidoflavus J1074) (UniProt O08247).
T1 sequence: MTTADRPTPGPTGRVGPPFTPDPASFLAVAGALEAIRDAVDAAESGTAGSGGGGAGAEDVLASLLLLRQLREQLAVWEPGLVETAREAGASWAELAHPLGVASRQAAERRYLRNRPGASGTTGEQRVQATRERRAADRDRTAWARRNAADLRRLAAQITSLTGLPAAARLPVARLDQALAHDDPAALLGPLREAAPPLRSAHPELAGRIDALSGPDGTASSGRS
Description: EMSA. Conditions: 20 mM Tris-HCl pH 7.5, 1 mM DTT, 5 mM MgCl2, 0.5 mg/ml BSA, 5% glycerol, 20 uL, 30 C 25 min, 4.5% native PAGE in 45 mM Tris-HCl pH 8.0, 45 mM boric acid. (In EMSA bound probe runs differently from free probe, usually more slowly.)

With “GAGTGAACACCTCCAGAAGTCCAGGCAGTTGATGCCATGCGCTTCGCTTGGCACCGTTGTAACATGTCATCCGAACGATGACAAGCGAGTCGTCGTCCATCGGATGACGACCCGGAGTGATATC (double strand) [RS01 probe (one rheO)]”, the binding entry was “binds”.
